Data published in patent US20020127221A1.
No end group written: not given here.

Tests used:
CRF-R1 [1] = assay: displacement of 125I-Sauvagine, membranes of CHO cells expressing CRFR1, filtration assay
CRF-R2β [2] = assay: displacement of 125I-Sauvagine, membranes of CHO cells expressing CRFR2β, filtration assay
CRF-R1 [3] = assay: cell-based or functional assay
CRF-R2β [4] = assay: cell-based or functional assay
CRF-R2β [5] = assay: radioreceptor competition vs 125I-[Tyr0,Glu1,Nle17]-sauvagine, CHO cell membranes
CRF-R1 [6] = assay: as above
CRF-R1 [7] = assay: assay not named in the summary; presumably 125I-sauvagine competition
CRF-R1 [8] = assay: radioreceptor competition vs labeled sauvagine, CHO cell membranes; reference urocortin

Sequence of CRF-R1 (P34998 24-415): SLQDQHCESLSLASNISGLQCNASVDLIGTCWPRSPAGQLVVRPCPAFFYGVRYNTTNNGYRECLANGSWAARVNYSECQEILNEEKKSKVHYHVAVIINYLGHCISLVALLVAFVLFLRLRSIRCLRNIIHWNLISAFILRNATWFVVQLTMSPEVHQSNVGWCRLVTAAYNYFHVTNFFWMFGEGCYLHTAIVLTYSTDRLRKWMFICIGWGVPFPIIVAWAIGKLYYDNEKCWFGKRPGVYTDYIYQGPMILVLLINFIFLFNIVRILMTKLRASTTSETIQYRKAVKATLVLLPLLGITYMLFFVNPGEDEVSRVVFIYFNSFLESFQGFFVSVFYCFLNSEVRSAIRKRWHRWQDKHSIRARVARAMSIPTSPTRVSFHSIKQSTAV

| Molecule | Ki (CRF-R1 [1]) | Ki (CRF-R2β [2]) | Avg. EC50 (nM) (cAMP) (CRF-R1 [3]) | Avg. EC50 (nM) (cAMP) (CRF-R2β [4]) | Ki (CRF-R2β [5]) | Ki (CRF-R1 [6]) | Ki (CRF-R1 [7]) | fold less effective than urocortin at competing for binding of labeled sauvagine (CRF-R1 [8]) |
| --- | --- | --- | --- | --- | --- | --- | --- | --- |
| urocortin (Ucn), species not stated (from UniProt P55090 81-120) (peptide) | 130 pM | 150 pM |  |  |  |  |  |  |
| DDPPLSIDLTFHLLRTLLELARTQSQRERAEQNRIIFDSV (peptide, UniProt P55090 81-120, looked up) [Urocortin (rat)] |  |  | 0.29 nM | 0.17 nM | 620 pM |  |  |  |
| QGPPISIDLSLELLRKMIEIEKQEKEKQQAANNRLLLDTI (peptide, UniProt P01144 1-40, looked up, ends and bridges not checked) [Sauvagine (frog)] |  |  |  |  | 1700 pM | 940 pM |  |  |
| IVLSLDVPIGLLQILLEQARARAAREQATTNARILARVGHC-NH2 [human urocortin-related peptide] | 78000 pM | 230 pM | > 100 nM | 0.42 nM | 500 pM |  | 70000 pM |  |
| VILSLDVPIGLLRILLEQARYKAARNQAATNAQILAHV-NH2 [Urocortin II (mouse)] |  |  | > 100 nM | 0.14 nM | 660 pM |  |  | > 1000 fold |
